Experimental data published in article PMC6588694.

Biological target: concanavalin A
Experiment: SEC; Superdex 200 Increase 10/300 GL, 50 mM Tris, 150 mM NaCl, 100 mM glucose; molecular weight calibrated with a gel filtration calibration kit

Substance: concanavalin A (natural protein)
- stoichiometry N: 4
